How the values were obtained:
[1] = test system: H3_1–20 K9me1 peptide; assay: Fluorescence polarization binding to H3K9me1 peptide
Experimental: (§1) Polarization assays with fluoresceinated H3_1–20 K9me1 or K9me2 peptides, 147 bp 601 DNA template, and core nucleosomes were performed and Kd values estimated as described ([11]) with the following modifications: The reaction buffer was 100 mM Tris pH 8, 100 mM KCl, 1 mM MgCl2, 20 μM ZnSO4, 10 mM BME, 0.1% NP-40. The concentration of peptides and nucleosomes was 150 nM and 200 nM for DNA. Polarization measurements were conducted on a Biotek Cytation 5 (peptide and nucleosome) or Molecular Devices Spectramax (DNA) plate reader with low-volume plates (Corning) in either 10 μl (peptide, nucleosome) or 40 μl (DNA) total volume.

[2] = test system: H3_1–20 K9me2 peptide; assay: Fluorescence polarization binding to H3K9me2 peptide
Experimental: as §1

B1: full-length G9a: E. coli expressed MBP:FL-G9a (protein)
chain: MRGLPRGRGLMRARGRGRAAPTGGRGRGRGGAHRGRGRPRSLLSLPRAQASWAPQLPAGLTGPPVPCLPSQGEAPAEMGALLLEKEPRGAAERVHSSLGDTPQSEETLPKANPDSLEPAGPSSPASVTVTVGDEGADTPVGAASLIGDEPESLEGDGGRIVLGHATKSFPSSPSKGGACPSRAKMSMTGAGKSPPSVQSLAMRLLSMPGAQGAATAGPEPSPATTAAQEGQPKVHRARKTMSKPSNGQPPIPEKRPPEVQHFRMSDDMHLGKVTSDVAKRRKLNSGSLSEDLGSAGGSGDIILEKGEPRPLEEWETVVGDDFSLYYDAYSVDERVDSDSKSEVEALAEQLSEEEEEEEEEEEEEEEEEEEEEEEEEDEESGNQSDRSGSSGRRKAKKKWRKDSPWVKPSRKRRKREPPRAKEPRGVNGVGSSGPSEYMEVPLGSLELPSEGTLSPNHAGVSNDTSSLETERGFEELPLCSCRMEAPKIDRISERAGHKCMATESVDGELLGCNAAILKRETMRPSSRVALMVLCEAHRARMVKHHCCPGCGYFCTAGTFLECHPDFRVAHRFHKACVSQLNGMVFCPHCGEDASEAQEVTIPRGDGGTPPIGTAAPALPPLAHDAPGRADTSQPSARMRGHGEPRRPPCDPLADTIDSSGPSLTLPNGGCLSAVGLPPGPGREALEKALVIQESERRKKLRFHPRQLYLSVKQGELQKVILMLLDNLDPNFQSDQQSKRTPLHAAAQKGSVEICHVLLQAGANINAVDKQQRTPLMEAVVNNHLEVARYMVQLGGCVYSKEEDGSTCLHHAAKIGNLEMVSLLLSTGQVDVNAQDSGGWTPIIWAAEHKHIDVIRMLLTRGADVTLTDNEENICLHWASFTGSAAIAEVLLNAQCDLHAVNYHGDTPLHIAARESYHDCVLLFLSRGANPELRNKEGDTAWDLTPERSDVWFALQLNRKLRLGVGNRAVRTEKIICRDVARGYENVPIPCVNGVDGEPCPEDYKYISENCETSTMNIDRNITHLQHCTCVDDCSSSNCLCGQLSIRCWYDKDGRLLQEFNKIEPPLIFECNQACSCWRSCKNRVVQSGIKVRLQLYRTAKMGWGVRALQTIPQGTFICEYVGELISDAEADVREDDSYLFDLDNKDGEVYCIDARYYGNISRFINHLCDPNIIPVRVFMLHQDLRFPRIAFFSSRDIRTGEELGFDYGDRFWDIKSKYFTCQCGSEKCKHSAEAIALEQSRLARLDPHPELLPDLSSLPPINT
[1]
  affinity for H3K9me1 peptide, in words: no discernable affinity for me1 or me2 peptides
[2]
  affinity for H3K9me2 peptide, in words: no discernable affinity for me1 or me2 peptides
